For experiment [1], the target named is T1, LgBiT-TEAD1-Myc (TEAD1 aa 194-411), mutant, P28347-1.
T1 chain: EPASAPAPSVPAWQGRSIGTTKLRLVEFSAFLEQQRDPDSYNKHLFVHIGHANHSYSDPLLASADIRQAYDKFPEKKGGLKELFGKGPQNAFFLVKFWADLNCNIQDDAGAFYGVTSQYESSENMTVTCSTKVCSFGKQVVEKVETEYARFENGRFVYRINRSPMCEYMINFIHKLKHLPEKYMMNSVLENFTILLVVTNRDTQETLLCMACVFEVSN
Kind of experiment: NanoBiT assay (split-luciferase biosensor) in lysates of transfected HEK293T cells. The conditions noted are these: chain shown with the change; 48 h after transfection; equal amounts of each biosensor plasmid; parent: est. 1300; read off a plot.

Experiment [2] deals with T2, LgBiT-TEAD-His fusion protein (TEAD1 aa 194-411), mutant, P28347-1.
T2 chain: T1 chain
Briefly: NanoBiT assay (split-luciferase biosensor) with purified His-tagged fusion proteins in vitro. The conditions noted are these: chain shown with the change; 100 ng of each construct; mixed and incubated for 5 min before substrate; parent: est. 59; read off a plot.

B1: m5; m2 TAZ:W43A; TAZ:K46A; TAZ:L48A; TAZ:S51A; TAZ:F52A; TAZ:F53A; TEAD1:E255A; TEAD1:V257A; TEAD1:I262A (protein)
chain: PGQQVIHVTQDLDTDLEALFNSVMNPKPSSARKAIAPEAAAKEPDSGSHSRQSSTDSSGGHPGPRLAGGAQHVRSHSSPASLQLGTGAGAAGSPAQQHAHLRQQSYD
Turning to B1, the response (fold over LgBiT-TEAD1 alone) in experiment [1] worked out at 19.

B2: m17; m14 TAZ:W43A; TAZ:K46A; TAZ:L48A; TAZ:S51A; TAZ:F52A; TAZ:F53A; TEAD1:E255A; TEAD1:V257A; TEAD1:I262A (protein)
chain: B1 chain
As for B2, the response (fold over LgBiT-TEAD1 alone) in experiment [2] turned out to be 12.

For the origin of these results see paper PMC6826516.
